Measured values: patent US8673848 (Novartis, dated 2014)
*1 amine or outer side, *2 acyl side, *3 side chain or, on linkers, in order; H or OH if unused. Bridges are numbered along the chain shown (N, C = ends). [ ]: non-standard residue; d: D form. The star is where a group is joined. ‑S‑CH2‑C(:Z)‑CH2‑S‑ = thioether linker between two Cys sulfurs, S-CH2-C(=Z)-CH2-S, where Z is an oxime formed with (S)-1-(aminooxy)-19-carboxy-2,7,16,21-tetraoxo-9,12-dioxa-3,6,15,20-tetraazaoctatriacontan-38-oic acid (a fatty acid derivative, O=C(O)CCCCCCCCCCCCCCCCC(=O)N[C@@H](CCC(=O)NCCOCCOCC(=O)NCCNC(=O)CON=C(C[*:1])C[*:2])C(=O)O; Myristoyl = CCCCCCCCCCCCCC(=O)*; pGlu = O=C1CC[C@@H](C(=O)O)N1; Nle = CCCC[C@H](N)C(=O)O; AEEA = NCCOCCOCC(=O)O; Aib = CC(C)(N)C(=O)O

T1: human APJ receptor (hAPJ) (human, UniProt P35414 1-380)
T1 sequence (looked up): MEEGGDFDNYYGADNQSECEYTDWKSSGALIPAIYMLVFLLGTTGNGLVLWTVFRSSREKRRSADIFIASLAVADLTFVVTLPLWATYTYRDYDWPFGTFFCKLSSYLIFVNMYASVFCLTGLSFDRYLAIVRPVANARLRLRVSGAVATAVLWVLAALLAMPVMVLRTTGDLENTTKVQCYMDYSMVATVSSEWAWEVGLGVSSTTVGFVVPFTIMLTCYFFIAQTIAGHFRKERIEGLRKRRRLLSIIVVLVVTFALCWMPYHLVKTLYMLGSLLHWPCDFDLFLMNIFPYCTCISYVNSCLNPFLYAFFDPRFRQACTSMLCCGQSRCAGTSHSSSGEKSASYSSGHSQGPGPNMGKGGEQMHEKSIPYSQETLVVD

B1: Example 65: pE-R-P-R-L-C-H-K-G-P-Nle-C-F-OH with a monosulfide linkage between the 2 cysteines at position 6 and 12 (peptide)
peptide: [pGlu]RPRLCHKGP[Nle]CF-OH
modifications: bridge 6-12; not fully specified (bridges); printed as pE-R-P-R-L-C-H-K-G-P-Nle-C-F-OH
B2: Example 66: pE-R-P-R-L-C-H-K-G-P-Nle-C-F-OH with a -S-CH2-C(=Z)-CH2-S- linkage between the 2 cysteines at position 6 and 12 (peptide)
peptide: [pGlu]RPRLCHKGP[Nle]CF-OH
modifications: linker 6-12 via ‑S‑CH2‑C(:Z)‑CH2‑S‑; also: Z = oxime with (S)-1-(aminooxy)-19-carboxy-2,7,16,21-tetraoxo-9,12-dioxa-3,6,15,20-tetraazaoctatriacontan-38-oic acid on the linker ketone
B3: Example 59: Myristoyl-O2Oc-O2Oc-O2Oc-Q-R-P-R-L-C-H-K-G-P-Nle-C-f-OH (peptide)
peptide: Myristoyl-[AEEA][AEEA][AEEA]QRPRLCHKGP[Nle]C[dF]-OH
modifications: disulfide 9-15
SMILES: CCCCCCCCCCCCCC(=O)NCCOCCOCC(=O)NCCOCCOCC(=O)NCCOCCOCC(=O)N[C@@H](CCC(N)=O)C(=O)N[C@@H](CCCNC(=N)N)C(=O)N1CCC[C@H]1C(=O)N[C@@H](CCCNC(=N)N)C(=O)N[C@@H](CC(C)C)C(=O)N[C@H]1CSSC[C@@H](C(=O)N[C@H](Cc2ccccc2)C(=O)O)NC(=O)[C@H](CCCC)NC(=O)[C@@H]2CCCN2C(=O)CNC(=O)[C@H](CCCCN)NC(=O)[C@H](Cc2c[nH]cn2)NC1=O
B4: Example 61: pE-R-P-R-L-C-H-K(Myristoyl)-G-P-Nle-C-F-OH (peptide)
peptide: [pGlu]RPRLCHK(Myristoyl)GP[Nle]CF-OH
modifications: disulfide 6-12
SMILES: CCCCCCCCCCCCCC(=O)NCCCC[C@@H]1NC(=O)[C@H](Cc2c[nH]cn2)NC(=O)[C@@H](NC(=O)[C@H](CC(C)C)NC(=O)[C@H](CCCNC(=N)N)NC(=O)[C@@H]2CCCN2C(=O)[C@H](CCCNC(=N)N)NC(=O)[C@@H]2CCC(=O)N2)CSSC[C@@H](C(=O)N[C@@H](Cc2ccccc2)C(=O)O)NC(=O)[C@H](CCCC)NC(=O)[C@@H]2CCCN2C(=O)CNC1=O
B5: Example 9: pE-R-P-R-L-C-Aib-K-G-P-Nle-C-F-OH (peptide)
peptide: [pGlu]RPRLC[Aib]KGP[Nle]CF-OH
modifications: disulfide 6-12
SMILES: CCCC[C@@H]1NC(=O)[C@@H]2CCCN2C(=O)CNC(=O)[C@H](CCCCN)NC(=O)C(C)(C)NC(=O)[C@@H](NC(=O)[C@H](CC(C)C)NC(=O)[C@H](CCCNC(=N)N)NC(=O)[C@@H]2CCCN2C(=O)[C@H](CCCNC(=N)N)NC(=O)[C@@H]2CCC(=O)N2)CSSC[C@@H](C(=O)N[C@@H](Cc2ccccc2)C(=O)O)NC1=O
B6: Example 6: pE-R-P-R-L-K-F-K-G-P-Nle-f (peptide)
peptide: [pGlu]RPRLKFKGP[Nle][dF]
modifications: lactam 6-C
SMILES: CCCC[C@@H]1NC(=O)[C@@H]2CCCN2C(=O)CNC(=O)[C@H](CCCCN)NC(=O)[C@H](Cc2ccccc2)NC(=O)[C@@H](NC(=O)[C@H](CC(C)C)NC(=O)[C@H](CCCNC(=N)N)NC(=O)[C@@H]2CCCN2C(=O)[C@H](CCCNC(=N)N)NC(=O)[C@@H]2CCC(=O)N2)CCCCNC(=O)[C@@H](Cc2ccccc2)NC1=O
B7: Example 62: pE-R-P-R-L-C-H-K-G-P-Nle-C-F-NH2 (peptide)
peptide: [pGlu]RPRLCHKGP[Nle]CF-NH2
modifications: disulfide 6-12
SMILES: CCCC[C@@H]1NC(=O)[C@@H]2CCCN2C(=O)CNC(=O)[C@H](CCCCN)NC(=O)[C@H](Cc2c[nH]cn2)NC(=O)[C@@H](NC(=O)[C@H](CC(C)C)NC(=O)[C@H](CCCNC(=N)N)NC(=O)[C@@H]2CCCN2C(=O)[C@H](CCCNC(=N)N)NC(=O)[C@@H]2CCC(=O)N2)CSSC[C@@H](C(=O)N[C@@H](Cc2ccccc2)C(N)=O)NC1=O
B8: Example 63: pE-R-P-R-L-C-H-K-G-P-Nle-C-NH2 (peptide)
peptide: [pGlu]RPRLCHKGP[Nle]C-NH2
modifications: disulfide 6-12
SMILES: CCCC[C@@H]1NC(=O)[C@@H]2CCCN2C(=O)CNC(=O)[C@H](CCCCN)NC(=O)[C@H](Cc2c[nH]cn2)NC(=O)[C@@H](NC(=O)[C@H](CC(C)C)NC(=O)[C@H](CCCNC(=N)N)NC(=O)[C@@H]2CCCN2C(=O)[C@H](CCCNC(=N)N)NC(=O)[C@@H]2CCC(=O)N2)CSSC[C@@H](C(N)=O)NC1=O
B9: Example 60: Myristoyl-O2Oc-O2Oc-O2Oc-O2Oc-Q-R-P-R-L-C-H-K-G-P-Nle-C-f-OH (peptide)
peptide: Myristoyl-[AEEA][AEEA][AEEA][AEEA]QRPRLCHKGP[Nle]C[dF]-OH
modifications: disulfide 10-16
SMILES: CCCCCCCCCCCCCC(=O)NCCOCCOCC(=O)NCCOCCOCC(=O)NCCOCCOCC(=O)NCCOCCOCC(=O)N[C@@H](CCC(N)=O)C(=O)N[C@@H](CCCNC(=N)N)C(=O)N1CCC[C@H]1C(=O)N[C@@H](CCCNC(=N)N)C(=O)N[C@@H](CC(C)C)C(=O)N[C@H]1CSSC[C@@H](C(=O)N[C@H](Cc2ccccc2)C(=O)O)NC(=O)[C@H](CCCC)NC(=O)[C@@H]2CCCN2C(=O)CNC(=O)[C@H](CCCCN)NC(=O)[C@H](Cc2c[nH]cn2)NC1=O

Target: T1, human APJ receptor (hAPJ)
Experiment: cell-based or functional assay

Binder | hAPJ Ca2+ Flux EC50
B1 | 1.1 nM
[pGlu]RPRLCHKGP[Nle]CF-OH (linker 6-12 via ‑S‑CH2‑C(O)CH2‑S‑) | 6.3 nM
B2 | 589 nM
B3 | 10 nM
[pGlu]RPRLCHKGP[Nle]CF-OH (disulfide 6-12) [Example 8: pE-R-P-R-L-C-H-K-G-P-Nle-C-F-OH] | 1.04 nM
B4 | 89.2 nM
B5 | 2.16 nM
B6 | 22 nM
B7 | 3.32 nM
B8 | 3.18 nM
B9 | 8.15 nM
cyclo(QRPRLCFKGP[Nle]CFGG) (disulfide 6-12) [Example 7: Q-R-P-R-L-C-F-K-G-P-Nle-C-F-G-G] | 90.8 nM
